According to paper PMC6692130, “PHLPP1 counter-regulates STAT1-mediated inflammatory signaling” (eLife, 2019):

Biological target: T1, HA-tagged PHLPP1 N-terminal extension (PHLPP1 NTE), residues 1-512 (UniProt O60346 1-512)
T1 construct: PH domain Leucine-rich repeat Protein Phosphatase 1 (PHLPP1), N-terminal extension, residues 1-512 of the 1717-residue protein; also called HA-NTE; pCDNA3 HA PHLPP1 NTE-WT; source: HEK-293T, transfected, in lysate; not shown: HA, N-terminal, kept
T1 sequence (looked up): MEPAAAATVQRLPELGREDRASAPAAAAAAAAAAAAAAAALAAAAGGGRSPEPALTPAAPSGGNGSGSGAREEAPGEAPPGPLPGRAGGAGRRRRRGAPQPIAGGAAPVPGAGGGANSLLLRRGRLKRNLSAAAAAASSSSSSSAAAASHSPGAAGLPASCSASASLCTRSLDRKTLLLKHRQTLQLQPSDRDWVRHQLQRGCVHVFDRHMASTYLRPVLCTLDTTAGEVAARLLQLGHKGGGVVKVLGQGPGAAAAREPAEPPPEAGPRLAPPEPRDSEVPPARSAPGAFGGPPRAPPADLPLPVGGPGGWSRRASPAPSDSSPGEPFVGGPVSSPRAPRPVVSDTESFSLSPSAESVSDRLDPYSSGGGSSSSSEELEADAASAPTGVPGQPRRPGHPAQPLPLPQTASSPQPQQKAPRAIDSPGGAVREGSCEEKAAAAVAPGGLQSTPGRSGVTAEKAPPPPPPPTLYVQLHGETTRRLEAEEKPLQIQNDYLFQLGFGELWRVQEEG
Experiment: co-IP; HEK-293T cells transfected with HA-tagged PHLPP1 constructs and GFP-STAT1; detergent-solubilized lysates incubated with anti-HA antibody at 4°C overnight, protein A/G agarose 1 hr at 4°C, washed three times in lysis buffer with 0.3 M NaCl and 0.1% Triton X 100; blot probed with GFP antibody; GFP-STAT1 IP divided by HA IP, normalized to HA-NTE IP, three independent experiments
Conditions: partners not purified

B1: GFP-STAT1 (natural protein, UniProt P42224 1-750, looked up)
chain: MSQWYELQQLDSKFLEQVHQLYDDSFPMEIRQYLAQWLEKQDWEHAANDVSFATIRFHDLLSQLDDQYSRFSLENNFLLQHNIRKSKRNLQDNFQEDPIQMSMIIYSCLKEERKILENAQRFNQAQSGNIQSTVMLDKQKELDSKVRNVKDKVMCIEHEIKSLEDLQDEYDFKCKTLQNREHETNGVAKSDQKQEQLLLKKMYLMLDNKRKEVVHKIIELLNVTELTQNALINDELVEWKRRQQSACIGGPPNACLDQLQNWFTIVAESLQQVRQQLKKLEELEQKYTYEHDPITKNKQVLWDRTFSLFQQLIQSSFVVERQPCMPTHPQRPLVLKTGVQFTVKLRLLVKLQELNYNLKVKVLFDKDVNERNTVKGFRKFNILGTHTKVMNMEESTNGSLAAEFRHLQLKEQKNAGTRTNEGPLIVTEELHSLSFETQLCQPGLVIDLETTSLPVVVISNVSQLPSGWASILWYNMLVAEPRNLSFFLTPPCARWAQLSEVLSWQFSSVTKRGLNVDQLNMLGEKLLGPNASPDGLIPWTRFCKENINDKNFPFWLWIESILELIKKHLLPLWNDGCIMGFISKERERALLKDQQPGTFLLRFSESSREGAITFTWVERSQNGGEPDFHAVEPYTKKELSAVTFPDIIRNYKVMAAENIPENPLKYLYPNIDKDHAFGKYYSRPKEAPEPMELDGPKGTGYIKTELISVSEVHPSRLQTTDNLLPMSPEEFDEVSRIVGSVEFDSMMNTV
notes: STAT1, detected in the co-IP by its GFP tag; the methods give no source or limits for it; source: HEK-293T, transfected, in lysate
B1 was tested, and the “fold binding against PHLPP1 lacking the NTE” value was roughly 26 fold and the “fold binding against full-length PHLPP1” value was roughly 5 fold.
